Assay results as given in the Immune Epitope Database (IEDB).

Key:
HLA-A*02:01 [1] = experiment: IEDB peptide-MHC binding, cellular MHC/competitive/fluorescence; ≥ and ≤ were set here for values at or beyond the usual limits of such assays; details: source organism: Vaccinia virus WR
HLA-A*02:01 [2] = experiment: IEDB peptide-MHC binding, purified MHC/competitive/radioactivity; ≥ and ≤ were set here for values at or beyond the usual limits of such assays
HLA-A*02:02 = experiment: as above; details: source organism: Hepatitis B virus
HLA-A*02:03 = experiment: as above; details: source organism: Hepatitis B virus
[3] = source organism: Vaccinia virus WR
[4] = source organism: Mammarenavirus machupoense
[5] = source organism: Mammarenavirus brazilense

Row | Sequence | IC50 (HLA-A*02:01 [2]; [3]) [nM] | also measured
1 | RTKIPLSKV | – | IC50 (HLA-A*02:01 [1]): ≥ 70000 nM
2 | ITVTVTFNPV | – | IC50 (HLA-A*02:01 [1]): 6420 nM
3 | NVVSSSTIAT | – | IC50 (HLA-A*02:01 [1]): ≥ 70000 nM
4 | ELEEMVDKGT | – | IC50 (HLA-A*02:01 [1]): ≥ 70000 nM
5 | SINVDSTDEL | – | IC50 (HLA-A*02:01 [1]): 60300 nM
6 | ITDAAVAVAA | – | IC50 (HLA-A*02:01 [1]): 6510 nM
7 | RTDTTICLSI | – | IC50 (HLA-A*02:01 [1]): 11000 nM
8 | DLAFLIKFIT | – | IC50 (HLA-A*02:01 [1]): 6320 nM
9 | AIMFKDDNI | – | IC50 (HLA-A*02:01 [1]): 9740 nM
10 | GATLYRFKHI | – | IC50 (HLA-A*02:01 [1]): ≥ 70000 nM
11 | GLSPTVWLSV | – | IC50 (HLA-A*02:01 [2]; source organism: Hepatitis B virus): 29 nM; IC50 (HLA-A*02:02): 23 nM
12 | SILSPFLPLL | – | IC50 (HLA-A*02:03): 16 nM
13 | IAMENLKAML | 674 | –
14 | TMFKIVYSL | 9.3 | –
15 | LTVLGLGLSL | 1930 | –
16 | FAAELTIGV | 0.32 | –
17 | VLPAVVYST | 113 | –
18 | LMYDIINSV | 1.8 | –
19 | YMNYYTTYI | 1.1 | –
20 | FLFYPSMFTL | 0.23 | –
21 | RTVIHLEWL | 514 | –
22 | GILSNYVKTL | 312 | –
23 | ITLSLSKQDI | 211 | –
24 | ILYMVVDGSV | 107 | –
25 | KTFKDESIFI | 93 | –

Row | Sequence | IC50 (HLA-A*02:01 [2]; [3]) [nM] | also measured
26 | VMNNLSELTA | 453 | –
27 | ELVRYIELV | 291 | –
28 | AITDAAVAV | 1480 | –
29 | TAYEINNEL | 925 | –
30 | YVTKKNNNI | 505 | –
31 | STAVNEEWL | 4690 | –
32 | IITNAGTCTV | 454 | –
33 | YLVNAIIDSA | 134 | –
34 | NIVWEKKSLV | 63 | –
35 | GLFIYIPGT | 19 | –
36 | AMPGVLSYVI | – | IC50 (HLA-A*02:01 [2]; [4]): 2450 nM
37 | SLNFLGGTTV | – | IC50 (HLA-A*02:03): 0.67 nM
38 | SVCNSLSQI | 1510 | –
39 | SMPASHNNLA | 1910 | –
40 | LLLLLFHSYA | 9.7 | –
41 | CMINDTHFLL | – | IC50 (HLA-A*02:01 [2]; source organism: Mammarenavirus whitewaterense): 66 nM
42 | FMLPKQDIV | 4.9 | –
43 | HLEWLLGFI | 173 | –
44 | YANCSSISI | 901 | –
45 | LISGSTFSI | 496 | –
46 | FVEALARSI | – | IC50 (HLA-A*02:01 [2]; source organism: Influenza A virus): 1020 nM
47 | GLYYQGSCYI | 5.1 | –
48 | RIIDSEVVV | 94 | –
49 | RLSTEERHI | 708 | –
50 | FTYYPTNKL | 1730 | –

Row | Sequence | IC50 (HLA-A*02:01 [2]; [3]) [nM] | also measured
51 | RIPNSLHSL | 670 | –
52 | FQYVSYSNFI | 1450 | –
53 | MTPSPFYTVM | 1700 | –
54 | KISLDISQL | 2280 | –
55 | FQLIFFLTLA | – | IC50 (HLA-A*02:01 [2]; [5]): 229 nM
56 | LTFWQIDYL | 7.3 | –
57 | ITLTNVVNI | 927 | –
58 | KLNGAMVEYV | 6.1 | –
59 | IVLFILKIFV | 271 | –
60 | NIYLNFPWL | 1210 | –
61 | KLTDSLSSQM | 935 | –
62 | IVFVFILTA | 294 | –
63 | YINTHNEVGI | 1640 | –
64 | QTSVFSATV | 1670 | –
65 | NTIDQTANV | 162 | –
66 | IMYTYFSNTI | 99 | –
67 | YILRGLLEA | 2.5 | –
68 | FMISFDDIAV | – | IC50 (HLA-A*02:01 [2]; source organism: Mammarenavirus juninense): 5.4 nM
69 | IVIGVIILA | 664 | –
70 | KLITFLFVI | 15 | –
71 | YLAIPDLYGI | 8.2 | –
72 | TMSAFLIVRL | 448 | –
73 | NLLSKNTFYL | 1.4 | –
74 | MLYFAGGLSV | 0.35 | –
75 | YTDEVYDYL | 21 | –

Row | Sequence | IC50 (HLA-A*02:01 [2]; [3]) [nM] | also measured
76 | LMDSIFVST | 0.72 | –
77 | LTNEIYASI | 864 | –
78 | ILMIFISSFL | 22 | –
79 | LLLWPLYVL | 0.21 | –
80 | TIGNQLYLTV | 18 | –
81 | MVNTVLITV | 121 | –
82 | SLNLTIVSV | 26 | –
83 | GLIIISIFL | 72 | –
84 | ELQKFSFKI | 167 | –
85 | VTINNLKMML | 3060 | –
86 | VTLLCVLPA | 76 | –
87 | LVLGIALLYI | 6.7 | –
88 | IVLSNTSTAV | 725 | –
89 | SILISLTNEI | 283 | –
90 | FAVQTIVFI | 96 | –
91 | QLIFFLTLA | – | IC50 (HLA-A*02:01 [2]; [5]): 122 nM
92 | LTIMGVIFLI | 9.4 | –
93 | VMVTITQNV | 37 | –
94 | IVMDNDDNIL | 883 | –
95 | LIAFSSGTV | 1810 | –
96 | FIHGGILYA | 8.8 | –
97 | AIIDIEPDL | 301 | –
98 | AIIGLCAYA | 81 | –
99 | VLDTTLYAV | 0.6 | –
100 | HIFMASPENV | 97 | –

Row | Sequence | IC50 (HLA-A*02:01 [2]; [3]) [nM] | also measured
101 | SLIKSTLQV | – | IC50 (HLA-A*02:01 [2]; [4]): 248 nM
102 | TLFFTTTLFL | – | IC50 (HLA-A*02:01 [2]; [5]): 423 nM
103 | VLGKVTINNL | 1770 | –
104 | GLCIRISMV | 216 | –
105 | TLFLLFLEI | 56 | –
106 | MLFVNDLMTM | 51 | –
107 | HLIFSYAFL | 105 | –
108 | SVVVPIKFIA | 4060 | –
109 | FTSSFYNYV | 0.46 | –
110 | VVMAYVGIKL | 219 | –
111 | IIITCCLLSV | 6.3 | –
112 | GLLEWIFRAL | – | IC50 (HLA-A*02:01 [2]; [5]): 439 nM
113 | SLAADLEKL | – | IC50 (HLA-A*02:01 [2]; source organism: Mammarenavirus choriomeningitidis): 45 nM
114 | YVHGDTYSL | 71 | –
115 | LILSCIFAFI | 18 | –
116 | FLSRVFFCV | 0.81 | –
117 | FIDSYLQKL | 24 | –
118 | YLNTNKLFFA | 9.9 | –
119 | FLHNYILYA | 0.54 | –
120 | YLIHDNIMYT | 1.3 | –
121 | MLMFIFTGI | 0.38 | –
122 | RTLLPILLL | 307 | –
123 | GLDVKNVQL | 278 | –
124 | QIFEVYWYL | 11 | –
